Measured values from patent publication US20140212406A1 (INSTITUT NATIONAL DE LA SANTE ET DE LA RECHERCHE MEDICALE …, published 2014).

T1: fibrin
T1 chain 1: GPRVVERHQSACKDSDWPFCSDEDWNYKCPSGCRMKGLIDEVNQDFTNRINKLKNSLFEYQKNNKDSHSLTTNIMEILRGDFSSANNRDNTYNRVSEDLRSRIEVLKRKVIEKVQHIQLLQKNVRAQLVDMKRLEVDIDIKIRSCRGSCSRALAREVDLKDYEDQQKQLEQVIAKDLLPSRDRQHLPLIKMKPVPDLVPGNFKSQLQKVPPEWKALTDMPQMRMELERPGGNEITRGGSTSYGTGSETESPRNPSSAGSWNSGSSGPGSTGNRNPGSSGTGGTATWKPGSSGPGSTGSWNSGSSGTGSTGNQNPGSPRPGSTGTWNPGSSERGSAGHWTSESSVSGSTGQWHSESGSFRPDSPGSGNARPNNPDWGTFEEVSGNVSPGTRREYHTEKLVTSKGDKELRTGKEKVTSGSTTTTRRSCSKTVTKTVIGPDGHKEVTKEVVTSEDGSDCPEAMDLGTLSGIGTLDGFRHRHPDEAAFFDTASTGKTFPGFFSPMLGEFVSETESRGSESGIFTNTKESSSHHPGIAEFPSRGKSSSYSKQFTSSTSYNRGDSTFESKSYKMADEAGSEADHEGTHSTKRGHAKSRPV
T1 chain 2: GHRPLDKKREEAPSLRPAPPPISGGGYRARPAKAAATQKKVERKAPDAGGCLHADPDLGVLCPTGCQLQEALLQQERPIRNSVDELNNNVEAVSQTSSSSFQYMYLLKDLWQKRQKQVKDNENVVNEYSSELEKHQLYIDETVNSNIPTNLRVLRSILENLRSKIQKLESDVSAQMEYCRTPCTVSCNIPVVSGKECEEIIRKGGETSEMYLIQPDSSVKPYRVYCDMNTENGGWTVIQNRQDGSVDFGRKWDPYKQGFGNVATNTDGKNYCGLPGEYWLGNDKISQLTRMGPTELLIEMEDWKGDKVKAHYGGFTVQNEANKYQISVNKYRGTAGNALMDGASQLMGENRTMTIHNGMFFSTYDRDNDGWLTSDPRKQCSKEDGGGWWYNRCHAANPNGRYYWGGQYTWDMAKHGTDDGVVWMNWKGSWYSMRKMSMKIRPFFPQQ
T1 chain 3: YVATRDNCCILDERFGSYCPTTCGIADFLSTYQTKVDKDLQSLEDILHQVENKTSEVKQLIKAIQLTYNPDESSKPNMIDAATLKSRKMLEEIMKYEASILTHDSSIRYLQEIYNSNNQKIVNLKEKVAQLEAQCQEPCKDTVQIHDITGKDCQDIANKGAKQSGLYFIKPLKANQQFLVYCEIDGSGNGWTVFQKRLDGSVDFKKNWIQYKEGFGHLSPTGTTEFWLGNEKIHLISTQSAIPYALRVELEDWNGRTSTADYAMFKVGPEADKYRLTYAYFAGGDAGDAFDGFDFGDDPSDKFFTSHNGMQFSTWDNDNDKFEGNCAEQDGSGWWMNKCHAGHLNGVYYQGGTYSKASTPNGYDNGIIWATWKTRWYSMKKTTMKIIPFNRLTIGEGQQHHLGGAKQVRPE


Biological target: T1, fibrin
Experiment: binding of tPA variants to a solid-phase fibrin surface on PVC plates (3 independent experiments, 12 doses)

Binder	Kd [pM]
rat single-chain tPA with arginine to serine point mutation at position 276 (R276S), 6xHis-tagged (enzyme, Present only in its single-chain form; also called sc*-tPA; rat sc*-tPA) HHHHHHSYRATCRDEQTQTTYQQHQSWLRPMLRGNRVEYCRCNSGLAQCHSVPVRSCSEPRCFNGGTCQQALYFSDFVCQCPDGFVGKRCDIDTRATCFEGQGITYRGTWSTAENGAECINWNSSALSQKPYSARRPNAIKLGLGNHNYCRNPDRDVRPWCYVFKAGKYTTEFCSTPACPKGPTEDCYVGKGVTYRGTHSFTTSKASCLPWNSMILIGKTYTAWRANSQALGLGRHNYCRNPDGDAKPWCHVMKDRKLTWEYCDMSPCSTCGLRQYKQPLFSIKGGLFTDITSHPWQAAIFVKNKRSPGERFLCGGVLISSCWVLSAAHCFVERFPPHHLKVVLGRTYRVVPGEEEQTFEIEKYIVHKEFDDDTYDNDIALLQLRSDSSQCAQESSSVGTACLPDPDVQLPDWTECELSGYGKHEASSPFFSDRLKEAHVRLYPSSRCTSQHLFNKTITSNMLCAGDTRTGGNQDVHDACQGDSGGPLVCMIDKRMTLLGIISWGLGCGQKDVPGIYTKVTNYLNWIQDNMKQ	1200
rat tPA with tryptophan to arginine point mutation at position 254 (W254R), 6xHis-tagged (enzyme, also called K2*-tPA; tPA W254R) HHHHHHSYRATCRDEQTQTTYQQHQSWLRPMLRGNRVEYCRCNSGLAQCHSVPVRSCSEPRCFNGGTCQQALYFSDFVCQCPDGFVGKRCDIDTRATCFEGQGITYRGTWSTAENGAECINWNSSALSQKPYSARRPNAIKLGLGNHNYCRNPDRDVRPWCYVFKAGKYTTEFCSTPACPKGPTEDCYVGKGVTYRGTHSFTTSKASCLPWNSMILIGKTYTAWRANSQALGLGRHNYCRNPDGDAKPWCHVMKDRKLTREYCDMSPCSTCGLRQYKQPLFRIKGGLFTDITSHPWQAAIFVKNKRSPGERFLCGGVLISSCWVLSAAHCFVERFPPHHLKVVLGRTYRVVPGEEEQTFEIEKYIVHKEFDDDTYDNDIALLQLRSDSSQCAQESSSVGTACLPDPDVQLPDWTECELSGYGKHEASSPFFSDRLKEAHVRLYPSSRCTSQHLFNKTITSNMLCAGDTRTGGNQDVHDACQGDSGGPLVCMIDKRMTLLGIISWGLGCGQKDVPGIYTKVTNYLNWIQDNMKQ	500

Each binder was assayed against N-methyl-D-aspartate receptor on primary cultured mouse cortical neurons (mouse, UniProt P35438 19-938) (assay: cell-based or functional assay).

Binder	neuronal cell death (LDH release, cortical neurons, 0.3 uM) [%]
human tPA containing the triple mutation P125R W253R R275S, 6xHis tag and linker at the N-terminus (enzyme) HHHHHHGSSYQVICRDEKTQMIYQQHQSWLRPVLRSNRVEYCWCNSGRAQCHSVPVKSCSEPRCFNGGTCQQALYFSDFVCQCPEGFAGKCCEIDTRATCYEDQGISYRGTWSTAESGAECTNWNSSALAQKRYSGRRPDAIRLGLGNHNYCRNPDRDSKPWCYVFKAGKYSSEFCSTPACSEGNSDCYFGNGSAYRGTHSLTESGASCLPWNSMILIGKVYTAQNPSAQALGLGKHNYCRNPDGDAKPWCHVLKNRRLTREYCDVPSCSTCGLRQYSQPQFSIKGGLFADIASHPWQAAIFAKHRRSPGERFLCGGILISSCWILSAAHCFQERFPPHHLTVILGRTYRVVPGEEEQKFEVEKYIVHKEFDDDTYDNDIALLQLKSDSSRCAQESSVVRTVCLPPADLQLPDWTECELSGYGKHEALSPFYSERLKEAHVRLYPSSRCTSQHLLNRTVTDNMLCAGDTRSGGPQANLHDACQGDSGGPLVCLNDGRMTLVGIISWGLGCGQKDVPGVYTKVTNYLDWIRDNMRP	51
human single-chain tPA with arginine to serine point mutation at position 275 (R275S), 6xHis tag and linker at the N-terminus (enzyme) HHHHHHGSSYQVICRDEKTQMIYQQHQSWLRPVLRSNRVEYCWCNSGRAQCHSVPVKSCSEPRCFNGGTCQQALYFSDFVCQCPEGFAGKCCEIDTRATCYEDQGISYRGTWSTAESGAECTNWNSSALAQKPYSGRRPDAIRLGLGNHNYCRNPDRDSKPWCYVFKAGKYSSEFCSTPACSEGNSDCYFGNGSAYRGTHSLTESGASCLPWNSMILIGKVYTAQNPSAQALGLGKHNYCRNPDGDAKPWCHVLKNRRLTWEYCDVPSCSTCGLRQYSQPQFSIKGGLFADIASHPWQAAIFAKHRRSPGERFLCGGILISSCWILSAAHCFQERFPPHHLTVILGRTYRVVPGEEEQKFEVEKYIVHKEFDDDTYDNDIALLQLKSDSSRCAQESSVVRTVCLPPADLQLPDWTECELSGYGKHEALSPFYSERLKEAHVRLYPSSRCTSQHLLNRTVTDNMLCAGDTRSGGPQANLHDACQGDSGGPLVCLNDGRMTLVGIISWGLGCGQKDVPGVYTKVTNYLDWIRDNMRP	62
human tPA containing a tryptophan to arginine point mutation at position 253 (W253R), 6xHis tag and linker at the N-terminus (enzyme) HHHHHHGSSYQVICRDEKTQMIYQQHQSWLRPVLRSNRVEYCWCNSGRAQCHSVPVKSCSEPRCFNGGTCQQALYFSDFVCQCPEGFAGKCCEIDTRATCYEDQGISYRGTWSTAESGAECTNWNSSALAQKPYSGRRPDAIRLGLGNHNYCRNPDRDSKPWCYVFKAGKYSSEFCSTPACSEGNSDCYFGNGSAYRGTHSLTESGASCLPWNSMILIGKVYTAQNPSAQALGLGKHNYCRNPDGDAKPWCHVLKNRRLTREYCDVPSCSTCGLRQYSQPQFRIKGGLFADIASHPWQAAIFAKHRRSPGERFLCGGILISSCWILSAAHCFQERFPPHHLTVILGRTYRVVPGEEEQKFEVEKYIVHKEFDDDTYDNDIALLQLKSDSSRCAQESSVVRTVCLPPADLQLPDWTECELSGYGKHEALSPFYSERLKEAHVRLYPSSRCTSQHLLNRTVTDNMLCAGDTRSGGPQANLHDACQGDSGGPLVCLNDGRMTLVGIISWGLGCGQKDVPGVYTKVTNYLDWIRDNMRP	64
human tPA containing the double mutation W253R R275S, 6xHis tag and linker at the N-terminus (enzyme) HHHHHHGSSYQVICRDEKTQMIYQQHQSWLRPVLRSNRVEYCWCNSGRAQCHSVPVKSCSEPRCFNGGTCQQALYFSDFVCQCPEGFAGKCCEIDTRATCYEDQGISYRGTWSTAESGAECTNWNSSALAQKPYSGRRPDAIRLGLGNHNYCRNPDRDSKPWCYVFKAGKYSSEFCSTPACSEGNSDCYFGNGSAYRGTHSLTESGASCLPWNSMILIGKVYTAQNPSAQALGLGKHNYCRNPDGDAKPWCHVLKNRRLTREYCDVPSCSTCGLRQYSQPQFSIKGGLFADIASHPWQAAIFAKHRRSPGERFLCGGILISSCWILSAAHCFQERFPPHHLTVILGRTYRVVPGEEEQKFEVEKYIVHKEFDDDTYDNDIALLQLKSDSSRCAQESSVVRTVCLPPADLQLPDWTECELSGYGKHEALSPFYSERLKEAHVRLYPSSRCTSQHLLNRTVTDNMLCAGDTRSGGPQANLHDACQGDSGGPLVCLNDGRMTLVGIISWGLGCGQKDVPGVYTKVTNYLDWIRDNMRP	62
